Tests used:
[1] = target: T1, recombinant human TfR1 (transferrin receptor 1) (human, UniProt P02786 89-760); assay: ELISA with Expi293 culture medium used directly, coated human TfR1, anti-Fc detection, absorbance at 450 nm
T1 construct: Bought recombinant His-tagged protein; also called hTfR1
Procedure: (§1) FIG. 6. […] The VNAR-Fc fusion proteins were transiently expressed using Expi293 expression system. VNAR-Fc constructs contained signal peptide sequence in order to be secreted. Cell growth media was used directly in ELISA. HSA and mouse TfR2 were used as negative controls for unspecific binding. A clone in position 52 represents untransfected cells. Total Fc concentration was measured with capture and detection anti-Fc antibody pair using irrelevant VNAR-Fc at known concentration for standard curve.
(§2) The next day the plates were blocked with […] with 0.1% Tween20 (PBST) for 1 hour at room temperature. Transfected cells were spun down at 2000 rpm for 10 minutes and the collected supernatant was mixed with milk in PBST to a final 2.5% concentration and incubated for 30 minutes. 100 μl of blocked supernatant was transferred into coated plates and incubated for 1 hour. […] The plates were washed and developed with TMB detection solution before stopping the reaction with 1% HCl. Absorbance was measured at 450 nm. A VNAR-Fc at know concentration was used for standard curve to calculate VNAR-Fc expression level.

human serum albumin = target: T2, human serum albumin (human, UniProt P02768 25-609); assay: ELISA with Expi293 culture medium used directly, coated HSA, anti-Fc detection
T2 construct: Negative control protein; also called HSA
Procedure: as §1, §2

recombinant mouse TfR2 = target: T3, recombinant mouse TfR2 (mouse, UniProt Q9JKX3 103-798, limits assumed); assay: ELISA with Expi293 culture medium used directly, coated mouse TfR2, anti-Fc detection
T3 construct: Negative control protein
T3 sequence (looked up): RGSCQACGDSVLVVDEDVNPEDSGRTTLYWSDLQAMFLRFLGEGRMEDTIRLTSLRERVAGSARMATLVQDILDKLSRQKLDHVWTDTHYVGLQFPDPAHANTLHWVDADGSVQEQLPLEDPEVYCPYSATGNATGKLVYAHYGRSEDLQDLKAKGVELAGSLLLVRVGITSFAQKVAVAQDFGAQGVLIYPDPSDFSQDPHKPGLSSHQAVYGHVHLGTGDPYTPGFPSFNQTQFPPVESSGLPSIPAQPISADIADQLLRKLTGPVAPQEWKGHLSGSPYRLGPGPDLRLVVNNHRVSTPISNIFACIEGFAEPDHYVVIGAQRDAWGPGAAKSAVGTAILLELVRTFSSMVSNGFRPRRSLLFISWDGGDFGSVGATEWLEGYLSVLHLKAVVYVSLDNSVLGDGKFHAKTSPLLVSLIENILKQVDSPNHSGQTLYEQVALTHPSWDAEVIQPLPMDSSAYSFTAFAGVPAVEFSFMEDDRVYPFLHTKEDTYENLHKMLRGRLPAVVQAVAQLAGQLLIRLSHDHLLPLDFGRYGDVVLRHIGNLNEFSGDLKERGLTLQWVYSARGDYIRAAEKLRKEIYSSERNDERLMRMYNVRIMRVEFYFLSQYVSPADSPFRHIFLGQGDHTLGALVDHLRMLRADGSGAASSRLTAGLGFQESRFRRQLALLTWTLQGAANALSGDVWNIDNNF
Procedure: as §1, §2

T1 sequence (P02786 89-760 limits assumed): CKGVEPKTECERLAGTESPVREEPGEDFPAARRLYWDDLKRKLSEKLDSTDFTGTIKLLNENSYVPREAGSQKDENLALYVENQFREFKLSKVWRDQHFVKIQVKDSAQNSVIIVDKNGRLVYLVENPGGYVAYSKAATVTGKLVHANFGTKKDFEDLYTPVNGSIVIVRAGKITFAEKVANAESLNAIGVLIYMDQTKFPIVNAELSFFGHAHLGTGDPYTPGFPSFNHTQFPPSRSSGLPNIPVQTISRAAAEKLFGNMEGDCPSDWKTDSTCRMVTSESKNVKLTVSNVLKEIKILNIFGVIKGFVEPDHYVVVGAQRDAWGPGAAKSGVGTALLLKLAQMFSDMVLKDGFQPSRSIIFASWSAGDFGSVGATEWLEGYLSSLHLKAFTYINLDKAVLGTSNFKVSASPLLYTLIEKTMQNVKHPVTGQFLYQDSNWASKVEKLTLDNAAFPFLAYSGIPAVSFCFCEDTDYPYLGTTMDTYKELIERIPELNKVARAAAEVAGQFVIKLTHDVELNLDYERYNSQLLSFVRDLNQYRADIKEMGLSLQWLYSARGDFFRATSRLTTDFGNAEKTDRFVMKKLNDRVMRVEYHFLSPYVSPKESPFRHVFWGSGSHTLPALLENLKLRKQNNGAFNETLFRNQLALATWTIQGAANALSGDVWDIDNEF
T2 sequence (P02768 25-609 limits assumed): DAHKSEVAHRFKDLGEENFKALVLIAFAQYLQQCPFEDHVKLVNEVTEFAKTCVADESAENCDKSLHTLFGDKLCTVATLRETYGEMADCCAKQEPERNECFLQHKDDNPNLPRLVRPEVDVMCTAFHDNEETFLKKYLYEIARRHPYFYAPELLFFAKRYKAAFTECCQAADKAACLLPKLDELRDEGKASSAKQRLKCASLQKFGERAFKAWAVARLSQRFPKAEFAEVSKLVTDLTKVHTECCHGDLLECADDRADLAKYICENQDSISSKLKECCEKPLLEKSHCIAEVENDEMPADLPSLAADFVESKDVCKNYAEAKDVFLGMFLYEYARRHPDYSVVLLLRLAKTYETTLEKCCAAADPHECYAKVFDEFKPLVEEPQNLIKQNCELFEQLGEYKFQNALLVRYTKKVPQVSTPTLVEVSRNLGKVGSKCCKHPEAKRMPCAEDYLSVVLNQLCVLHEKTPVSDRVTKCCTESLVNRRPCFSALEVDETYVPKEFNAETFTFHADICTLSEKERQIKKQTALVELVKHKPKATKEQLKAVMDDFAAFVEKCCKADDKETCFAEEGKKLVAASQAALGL

- binding result [1]: binds
- binding result (human serum albumin): no binding
- binding result (recombinant mouse TfR2): no binding
B1: Clone 11 VNAR-Fc fusion protein (Fc fusion)
chain: ARVDQTPQTITKETGESLTINCVLRDSNCALPSTHWYRKKSGSTNEESISKGGRYVETVNSGSKSFSLRINDLTVEDSGTYRCKVLNFFTHTCVQVQKYDVYGGGTAVTVNA
notes: Bivalent VNAR-Fc; not shown: glycine/serine linker (GxSx)n extending the hinge; human IgG1 Fc (hinge, CH2, CH3) of pFUSE-hIgG1e3-Fc2; G236 also deleted

Source: patent publication US20220031857A1 (OSSIANIX, published 2022)
